Laboratory results reported in article PMC9688318, “Construction of a Versatile, Programmable RNA-Binding Protein Using Designer PPR Proteins and Its Application for Splicing Control in Mammalian Cells”.

Experiments:
[1] = tested on: PPR2.0t15 (synthetic designer (scaffold from Arabidopsis PPR consensus)); assay: EMSA; conditions: apparent; EMSA: 20 mM Tris-HCl pH 8.0, 150 mM NaCl, 0.5% NP-40, 1 mM DTT, 1 mM EDTA, 0.2 pmol biotin-RNA in 10 uL, 6% PAGE in 0.5x TBE; temperature not stated; RBP-ELISA …
[2] = tested on: PPR2.0t15 (synthetic designer (scaffold from Arabidopsis PPR consensus)); assay: RBP-ELISA; conditions: cell lysate, EMSA: 20 mM Tris-HCl pH 8.0, 150 mM NaCl, 0.5% NP-40, 1 mM DTT, 1 mM EDTA, 0.2 pmol biotin-RNA in 10 uL, 6% PAGE in 0.5x TBE, temperature not stated
[3] = tested on: PPR2.0t5 (synthetic designer (scaffold from Arabidopsis PPR consensus)); assay: EMSA; conditions: apparent; EMSA: 20 mM Tris-HCl pH 8.0, 150 mM NaCl, 0.5% NP-40, 1 mM DTT, 1 mM EDTA, 0.2 pmol biotin-RNA in 10 uL, 6% PAGE in 0.5x TBE; temperature not stated; RBP-ELISA …
[4] = tested on: PPR2.0t5 (synthetic designer (scaffold from Arabidopsis PPR consensus)); assay: RBP-ELISA; conditions: cell lysate, EMSA: 20 mM Tris-HCl pH 8.0, 150 mM NaCl, 0.5% NP-40, 1 mM DTT, 1 mM EDTA, 0.2 pmol biotin-RNA in 10 uL, 6% PAGE in 0.5x TBE, temperature not stated
[5] = tested on: PPR2.0t8 (synthetic designer (scaffold from Arabidopsis PPR consensus)); assay: EMSA; conditions: apparent; EMSA: 20 mM Tris-HCl pH 8.0, 150 mM NaCl, 0.5% NP-40, 1 mM DTT, 1 mM EDTA, 0.2 pmol biotin-RNA in 10 uL, 6% PAGE in 0.5x TBE; temperature not stated; RBP-ELISA …
[6] = tested on: PPR2.0t8 (synthetic designer (scaffold from Arabidopsis PPR consensus)); assay: RBP-ELISA; conditions: cell lysate, EMSA: 20 mM Tris-HCl pH 8.0, 150 mM NaCl, 0.5% NP-40, 1 mM DTT, 1 mM EDTA, 0.2 pmol biotin-RNA in 10 uL, 6% PAGE in 0.5x TBE, temperature not stated
[7] = tested on: PPR2.0t23 (synthetic designer (scaffold from Arabidopsis PPR consensus)); assay: EMSA; conditions: apparent; EMSA: 20 mM Tris-HCl pH 8.0, 150 mM NaCl, 0.5% NP-40, 1 mM DTT, 1 mM EDTA, 0.2 pmol biotin-RNA in 10 uL, 6% PAGE in 0.5x TBE; temperature not stated; RBP-ELISA …
[8] = tested on: PPR2.0t23 (synthetic designer (scaffold from Arabidopsis PPR consensus)); assay: RBP-ELISA; conditions: cell lysate, EMSA: 20 mM Tris-HCl pH 8.0, 150 mM NaCl, 0.5% NP-40, 1 mM DTT, 1 mM EDTA, 0.2 pmol biotin-RNA in 10 uL, 6% PAGE in 0.5x TBE, temperature not stated
[9] = tested on: PPR2.0t3 (synthetic designer (scaffold from Arabidopsis PPR consensus)); assay: EMSA; conditions: apparent; EMSA: 20 mM Tris-HCl pH 8.0, 150 mM NaCl, 0.5% NP-40, 1 mM DTT, 1 mM EDTA, 0.2 pmol biotin-RNA in 10 uL, 6% PAGE in 0.5x TBE; temperature not stated; RBP-ELISA …
[10] = tested on: PPR2.0t3 (synthetic designer (scaffold from Arabidopsis PPR consensus)); assay: RBP-ELISA; conditions: cell lysate, EMSA: 20 mM Tris-HCl pH 8.0, 150 mM NaCl, 0.5% NP-40, 1 mM DTT, 1 mM EDTA, 0.2 pmol biotin-RNA in 10 uL, 6% PAGE in 0.5x TBE, temperature not stated
[11] = tested on: PPR2.0t1 (synthetic designer (scaffold from Arabidopsis PPR consensus)); assay: EMSA; conditions: apparent; EMSA: 20 mM Tris-HCl pH 8.0, 150 mM NaCl, 0.5% NP-40, 1 mM DTT, 1 mM EDTA, 0.2 pmol biotin-RNA in 10 uL, 6% PAGE in 0.5x TBE; temperature not stated; RBP-ELISA …
[12] = tested on: PPR2.0t1 (synthetic designer (scaffold from Arabidopsis PPR consensus)); assay: RBP-ELISA; conditions: cell lysate, EMSA: 20 mM Tris-HCl pH 8.0, 150 mM NaCl, 0.5% NP-40, 1 mM DTT, 1 mM EDTA, 0.2 pmol biotin-RNA in 10 uL, 6% PAGE in 0.5x TBE, temperature not stated
[13] = tested on: PPR2.0t11 (synthetic designer (scaffold from Arabidopsis PPR consensus)); assay: EMSA; conditions: apparent; EMSA: 20 mM Tris-HCl pH 8.0, 150 mM NaCl, 0.5% NP-40, 1 mM DTT, 1 mM EDTA, 0.2 pmol biotin-RNA in 10 uL, 6% PAGE in 0.5x TBE; temperature not stated; RBP-ELISA …
[14] = tested on: PPR2.0t11 (synthetic designer (scaffold from Arabidopsis PPR consensus)); assay: RBP-ELISA; conditions: cell lysate, EMSA: 20 mM Tris-HCl pH 8.0, 150 mM NaCl, 0.5% NP-40, 1 mM DTT, 1 mM EDTA, 0.2 pmol biotin-RNA in 10 uL, 6% PAGE in 0.5x TBE, temperature not stated
[15] = tested on: PPR2.0t2 (synthetic designer (scaffold from Arabidopsis PPR consensus)); assay: EMSA; conditions: apparent; EMSA: 20 mM Tris-HCl pH 8.0, 150 mM NaCl, 0.5% NP-40, 1 mM DTT, 1 mM EDTA, 0.2 pmol biotin-RNA in 10 uL, 6% PAGE in 0.5x TBE; temperature not stated; RBP-ELISA …
[16] = tested on: PPR2.0t2 (synthetic designer (scaffold from Arabidopsis PPR consensus)); assay: RBP-ELISA; conditions: cell lysate, EMSA: 20 mM Tris-HCl pH 8.0, 150 mM NaCl, 0.5% NP-40, 1 mM DTT, 1 mM EDTA, 0.2 pmol biotin-RNA in 10 uL, 6% PAGE in 0.5x TBE, temperature not stated
[17] = tested on: PPR2.0t14 (synthetic designer (scaffold from Arabidopsis PPR consensus)); assay: EMSA; conditions: apparent; EMSA: 20 mM Tris-HCl pH 8.0, 150 mM NaCl, 0.5% NP-40, 1 mM DTT, 1 mM EDTA, 0.2 pmol biotin-RNA in 10 uL, 6% PAGE in 0.5x TBE; temperature not stated; RBP-ELISA …
[18] = tested on: PPR2.0t14 (synthetic designer (scaffold from Arabidopsis PPR consensus)); assay: RBP-ELISA; conditions: cell lysate, EMSA: 20 mM Tris-HCl pH 8.0, 150 mM NaCl, 0.5% NP-40, 1 mM DTT, 1 mM EDTA, 0.2 pmol biotin-RNA in 10 uL, 6% PAGE in 0.5x TBE, temperature not stated
[19] = tested on: PPR2.0t4 (synthetic designer (scaffold from Arabidopsis PPR consensus)); assay: EMSA; conditions: apparent; EMSA: 20 mM Tris-HCl pH 8.0, 150 mM NaCl, 0.5% NP-40, 1 mM DTT, 1 mM EDTA, 0.2 pmol biotin-RNA in 10 uL, 6% PAGE in 0.5x TBE; temperature not stated; RBP-ELISA …
[20] = tested on: PPR2.0t4 (synthetic designer (scaffold from Arabidopsis PPR consensus)); assay: RBP-ELISA; conditions: cell lysate, EMSA: 20 mM Tris-HCl pH 8.0, 150 mM NaCl, 0.5% NP-40, 1 mM DTT, 1 mM EDTA, 0.2 pmol biotin-RNA in 10 uL, 6% PAGE in 0.5x TBE, temperature not stated
[21] = tested on: PPR2.0t24 (synthetic designer (scaffold from Arabidopsis PPR consensus)); assay: EMSA; conditions: apparent; EMSA: 20 mM Tris-HCl pH 8.0, 150 mM NaCl, 0.5% NP-40, 1 mM DTT, 1 mM EDTA, 0.2 pmol biotin-RNA in 10 uL, 6% PAGE in 0.5x TBE; temperature not stated; RBP-ELISA …
[22] = tested on: PPR2.0t19 (synthetic designer (scaffold from Arabidopsis PPR consensus)); assay: EMSA; conditions: apparent; EMSA: 20 mM Tris-HCl pH 8.0, 150 mM NaCl, 0.5% NP-40, 1 mM DTT, 1 mM EDTA, 0.2 pmol biotin-RNA in 10 uL, 6% PAGE in 0.5x TBE; temperature not stated; RBP-ELISA …
[23] = tested on: PPR2.0t19 (synthetic designer (scaffold from Arabidopsis PPR consensus)); assay: RBP-ELISA; conditions: cell lysate, EMSA: 20 mM Tris-HCl pH 8.0, 150 mM NaCl, 0.5% NP-40, 1 mM DTT, 1 mM EDTA, 0.2 pmol biotin-RNA in 10 uL, 6% PAGE in 0.5x TBE, temperature not stated

“GACAUGCAAGGAUAAUAUCAAACACGACUG [Probe_t15]” showed a Kd [1] of 41 nM and a binding signal [2] of 2.84e+07 luminescence.
With “GACAUGCCAACAUCAGUCUGAUAAGGACUG [Probe_t5]” the Kd [3] was 167 nM and the binding signal [4] was 1.67e+07 luminescence.
“GACAUGCCACUAUUUAAGUUAUCAAGACUG [Probe_t8]” was tested, and the Kd [5] was 1.95 nM and the binding signal [6] was 4.7e+07 luminescence.
“GACAUGCCCCAUAGAUGUGACAAGCGACUG [Probe_t23]” showed a Kd [7] of 10.4 nM and a binding signal [8] of 3.27e+07 luminescence.
“GACAUGCCUGAGUCAUAACCAGCCUGACUG [Probe_t3]” showed a Kd [9] of 59.2 nM and a binding signal [10] of 3.35e+07 luminescence.
“GACAUGCGAAUGAACUCUUCCGGGAGACUG [Probe_t1]” showed a Kd [11] of 3.45 nM and a binding signal [12] of 6.64e+07 luminescence.
“GACAUGCGACUCAGGAAUCGGCUCUGACUG [Probe_t11]” showed a Kd [13] of 63.3 nM and a binding signal [14] of 3.78e+07 luminescence.
“GACAUGCGAGAGGAAGCCUGAGAGUGACUG [Probe_t2]” showed a Kd [15] of 4 nM and a binding signal [16] of 5.68e+07 luminescence.
Sequence “GACAUGCGCAGAUAAUUAAUAAGAAGACUG [Probe_t14]” has a Kd [17] of 197 nM and a binding signal [18] of 1.33e+07 luminescence.
For “GACAUGCGGCAAAAAGAUCACUGUAGACUG [Probe_t4]”, the Kd [19] was 2.57 nM and the binding signal [20] was 5.98e+07 luminescence.
“GACAUGCGGCGGGGCACUGUGCGUGGACUG [Probe_t24]” gave a Kd [21] of 11 nM.
Sequence “GACAUGCGUGAUGUGGAGUUAAGGCGACUG [Probe_t19]” has a Kd [22] of 173 nM and a binding signal [23] of 1.19e+07 luminescence.
